From publication PMC6258710, “Architecture and subunit arrangement of the complete Saccharomyces cerevisiae COMPASS complex” (Scientific Reports, 2018)

T1: Set1 (S. cerevisiae, UniProt P38827 1-1080)
T1 construct: Set1, histone H3K4 methyltransferase subunit of COMPASS, S. cerevisiae, full length; also called TAP-Set1; TAP-SET1; source: S. cerevisiae (strain yCOS2), overexpressed from the GAL1-10 promoter with the six Cps subunits; in lysate for the TAP purification; then purified as the COMPASS complex (IgG-Sepharose, TEV, calmodulin-Sepharose, glycerol gradient or GraFix); not shown: TAP, N-terminal, kept
T1 sequence (looked up): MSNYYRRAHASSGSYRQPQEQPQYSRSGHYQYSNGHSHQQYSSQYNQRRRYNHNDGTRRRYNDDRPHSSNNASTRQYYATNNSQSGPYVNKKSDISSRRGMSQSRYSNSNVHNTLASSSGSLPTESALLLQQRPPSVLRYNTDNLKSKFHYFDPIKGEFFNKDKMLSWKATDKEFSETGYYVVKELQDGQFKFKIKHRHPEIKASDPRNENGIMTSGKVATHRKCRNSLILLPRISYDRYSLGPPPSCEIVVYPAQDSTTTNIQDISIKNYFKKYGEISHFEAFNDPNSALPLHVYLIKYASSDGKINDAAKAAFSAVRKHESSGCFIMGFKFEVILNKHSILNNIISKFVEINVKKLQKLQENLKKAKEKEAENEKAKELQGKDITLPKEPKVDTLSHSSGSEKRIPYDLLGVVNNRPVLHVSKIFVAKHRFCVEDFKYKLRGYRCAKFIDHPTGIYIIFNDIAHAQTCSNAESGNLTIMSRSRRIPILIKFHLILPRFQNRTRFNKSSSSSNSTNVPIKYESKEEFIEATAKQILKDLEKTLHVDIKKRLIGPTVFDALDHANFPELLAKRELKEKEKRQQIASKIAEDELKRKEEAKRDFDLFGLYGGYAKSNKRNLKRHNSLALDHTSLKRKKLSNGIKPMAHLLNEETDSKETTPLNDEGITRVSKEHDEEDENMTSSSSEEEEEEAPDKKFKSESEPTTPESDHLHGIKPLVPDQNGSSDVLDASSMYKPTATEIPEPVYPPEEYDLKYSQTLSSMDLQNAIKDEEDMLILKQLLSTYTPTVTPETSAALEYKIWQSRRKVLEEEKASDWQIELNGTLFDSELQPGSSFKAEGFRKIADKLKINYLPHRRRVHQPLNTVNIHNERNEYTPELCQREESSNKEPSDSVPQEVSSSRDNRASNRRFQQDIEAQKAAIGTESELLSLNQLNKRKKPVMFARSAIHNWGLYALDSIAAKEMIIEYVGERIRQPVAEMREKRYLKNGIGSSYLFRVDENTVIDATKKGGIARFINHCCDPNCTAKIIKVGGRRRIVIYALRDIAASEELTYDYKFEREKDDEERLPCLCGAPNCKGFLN

B1: Cps60/Bre2 (natural protein, S. cerevisiae, UniProt P43132 1-505, looked up)
chain: MKLGIIPYQEGTDIVYKNALQGQQEGKRPNLPQMEATHQIKSSVQGTSYEFVRTEDIPLNRRHFVYRPCSANPFFTILGYGCTEYPFDHSGMSVMDRSEGLSISRDGNDLVSVPDQYGWRTARSDVCIKEGMTYWEVEVIRGGNKKFADGVNNKENADDSVDEVQSGIYEKMHKQVNDTPHLRFGVCRREASLEAPVGFDVYGYGIRDISLESIHEGKLNCVLENGSPLKEGDKIGFLLSLPSIHTQIKQAKEFTKRRIFALNSHMDTMNEPWREDAENGPSRKKLKQETTNKEFQRALLEDIEYNDVVRDQIAIRYKNQLFFEATDYVKTTKPEYYSSDKRERQDYYQLEDSYLAIFQNGKYLGKAFENLKPLLPPFSELQYNEKFYLGYWQHGEARDESNDKNTTSAKKKKQQQKKKKGLILRNKYVNNNKLGYYPTISCFNGGTARIISEEDKLEYLDQIRSAYCVDGNSKVNTLDTLYKEQIAEDIVWDIIDELEQIALQQ
notes: Cps60/Bre2, subunit of COMPASS, S. cerevisiae, full length; source: S. cerevisiae (strain yCOS2), overexpressed from the GAL1-10 promoter; in lysate for the TAP purification; then co-purified with TAP-Set1 as the COMPASS complex
B2: Cps50/Swd1 (natural protein, S. cerevisiae, UniProt P39706 1-426, looked up)
chain: MNILLQDPFAVLKEHPEKLTHTIENPLRTECLQFSPCGDYLALGCANGALVIYDMDTFRPICVPGNMLGAHVRPITSIAWSPDGRLLLTSSRDWSIKLWDLSKPSKPLKEIRFDSPIWGCQWLDAKRRLCVATIFEESDAYVIDFSNDPVASLLSKSDEKQLSSTPDHGYVLVCTVHTKHPNIIIVGTSKGWLDFYKFHSLYQTECIHSLKITSSNIKHLIVSQNGERLAINCSDRTIRQYEISIDDENSAVELTLEHKYQDVINKLQWNCILFSNNTAEYLVASTHGSSAHELYIWETTSGTLVRVLEGAEEELIDINWDFYSMSIVSNGFESGNVYVWSVVIPPKWSALAPDFEEVEENVDYLEKEDEFDEVDEAEQQQGLEQEEEIAIDLRTREQYDVRGNNLLVERFTIPTDYTRIIKMQSS
notes: Cps50/Swd1, WD40 repeat subunit of COMPASS, S. cerevisiae, full length; source: S. cerevisiae (strain yCOS2), overexpressed from the GAL1-10 promoter; in lysate for the TAP purification; then co-purified with TAP-Set1 as the COMPASS complex

What was measured:
Set1 [1] = target: T1, Set1; assay: tandem affinity purification (TAP), SDS-PAGE; yeast lysate; TAP-Set1 held on IgG-Sepharose, washed with 350 mM NaCl, TEV elution, calmodulin-Sepharose, EGTA elution, then glycerol gradient centrifugation; subunits seen by SDS-PAGE; settings: partners not purified
Set1 [2] = target: T1, Set1; assay: cross-linking; purified COMPASS from the glycerol gradient cross-linked with 1 mM disuccinimidyl suberate (DSS), on ice 2 h; trypsin digest, LC-MS/MS, pLink and xlinkx (XL-MS); settings: both partners purified
Set1 [3] = target: T1, Set1; assay: cryo-EM structure; complete COMPASS after GraFix (glutaraldehyde), map at 10.0 Å; subunits placed by DID, PA-NZ-1 Fab and eGFP labelling and by docking of homology models; settings: both partners purified
Cps50/Swd1 = target: B2; assay: as above; settings: both partners purified
Cps60/Bre2 = target: B1; assay: cross-linking; purified COMPASS from the glycerol gradient cross-linked with 1 mM disuccinimidyl suberate (DSS), on ice 2 h; trypsin digest, LC-MS/MS, pLink and xlinkx (XL-MS); settings: both partners purified

binding result (Set1 [2]) | binding result (Set1 [3]) | Binder | other results
– | – | B1 | binding result (Set1 [1]): binds
binds | – | Cps40/Spp1 (natural protein, S. cerevisiae, UniProt Q03012 1-353, looked up, Cps40/Spp1, subunit of COMPASS, S. cerevisiae, full length; source: S. cerevisiae (strain yCOS2), overexpressed from the GAL1-10 promoter; in lysate for the TAP purification; then co-purified with TAP-Set1 as the COMPASS complex) MSLPQWCPPHSTLKRNPTTGEDVYCICKRPDYGELMVGCDGCDDWFHFTCLHIPEQFKDLVFSFYCPYCQAGITGKNKDAIINGEGSLPKTLWKRKCRISDCYKPCLQDSKYCSEEHGREFVNDIWSRLKTDEDRAVVKKMVEQTGHIDKFKKFGQLDFIDNNIVVKTDDEKEIFDQIVVRDMTLKTLEDDLQEVQEISLPLFKKKLELLEVYLGWLDNVYTEMRKLDDDAASHVECGKEDSKGTKRKKKKNSSRSRARKNICGYCSTYERIPCSVEEFVRDFGSNEEATKIHEVCTKWKCNRHLDWVSTNQEQYLQQIDSLESMQERLQHLIQARKKQLNIQYYEEILRRGL | –
– | binds | B2 | –
– | binds | Cps30/Swd3 (natural protein, S. cerevisiae, UniProt P38123 1-315, looked up, Cps30/Swd3, WD40 repeat subunit of COMPASS, S. cerevisiae, full length; source: S. cerevisiae (strain yCOS2), overexpressed from the GAL1-10 promoter; in lysate for the TAP purification; then co-purified with TAP-Set1 as the COMPASS complex) MFQFVTPVGTQNGLKATCAKISPDGQFLAITQGLNILIYDINRRTVSQTLVTSHARPFSELCWSPDGQCIATASDDFSVEIIHLSYGLLHTFIGHTAPVISLTFNRKGNLLFTSSMDESIKIWDTLNGSLMKTISAHSEAVVSVDVPMNDSSILSSGSYDGLIRIFDAETGHCLKTLTYDKDWKRENGVVPISQVKFSENARYLLVKSLDGVVKIWDCIGGCVVRTFQVQPLEKGVLHHSCGMDFLNPEDGSTPLVISGYENGDIYCWNSDTKSLLQLLDGSLYHHSSPVMSIHCFGNIMCSLALNGDCCLWRWV | binding result (Cps50/Swd1): binds
binds | – | Cps25/Sdc1 (natural protein, S. cerevisiae, UniProt Q03323 1-175, looked up, Cps25/Sdc1, subunit of COMPASS, S. cerevisiae, full length; source: S. cerevisiae (strain yCOS2), overexpressed from the GAL1-10 promoter; in lysate for the TAP purification; then co-purified with TAP-Set1 as the COMPASS complex) MNESENSPQHNEVTVPMVEDTSSNADIPMEQIQREDNKNYDKHDNECFDMNGNHNNNSDNLQFDSVPSSATKDLKNIKSVTNQNVKIEESSSTNSVIEESSEPKISKLENVNLAATVGGSQTRKYLNTNVTPHLLAGMRLIAVQQPEDPLRVLGEYLIEQSNILKSGEKESNASK | binding result (Cps60/Bre2): binds
binds | – | Cps35/Swd2 (natural protein, S. cerevisiae, UniProt P36104 1-329, looked up, Cps35/Swd2, WD40 repeat subunit of COMPASS, S. cerevisiae, full length; source: S. cerevisiae (strain yCOS2), overexpressed from the GAL1-10 promoter; in lysate for the TAP purification; then co-purified with TAP-Set1 as the COMPASS complex) MTTVSINKPNLLKFKHVKSFQPQEKDCGPVTSLNFDDNGQFLLTSSSNDTMQLYSATNCKFLDTIASKKYGCHSAIFTHAQNECIYSSTMKNFDIKYLNLETNQYLRYFSGHGALVNDLKMNPVNDTFLSSSYDESVRLWDLKISKPQVIIPSLVPNCIAYDPSGLVFALGNPENFEIGLYNLKKIQEGPFLIIKINDATFSQWNKLEFSNNGKYLLVGSSIGKHLIFDAFTGQQLFELIGTRAFPMREFLDSGSACFTPDGEFVLGTDYDGRIAIWNHSDSISNKVLRPQGFIPCVSHETCPRSIAFNPKYSMFVTADETVDFYVYDE | –
